Laboratory results as given in US7537764.

How the values were obtained:
[1] = molecular target: West Nile virus strain USA99b (strain 385-99), whole virus (West Nile virus strain 385-99 (USA99b)); experiment: ELISA on irradiated WNV; antibody diluted 1:5
[2] = molecular target: West Nile virus strain USA99b (strain 385-99), whole virus (West Nile virus strain 385-99 (USA99b)); experiment: ELISA on irradiated WNV; antibody at 20.000 µg/ml
[3] = molecular target: West Nile virus strain USA99b (strain 385-99), whole virus (West Nile virus strain 385-99 (USA99b)); experiment: ELISA on irradiated WNV; antibody diluted 1:125
[4] = molecular target: West Nile virus strain USA99b (strain 385-99), whole virus (West Nile virus strain 385-99 (USA99b)); experiment: ELISA on irradiated WNV; antibody diluted 1:25
[5] = molecular target: WNV-like particles with E protein mutation A365V (West Nile virus strain 382-99) (UniProt Q9Q6P4)
[6] = molecular target: West Nile virus strain USA99b (strain 385-99), whole virus (West Nile virus strain 385-99 (USA99b)); experiment: SPR (BIAcore3000), WNV captured via immobilized CR4283, IgG injected, bivalent analyte model, average of duplicates

anti-rabies virus antibody (negative control)
OD 492 nm [1]: 0.062 OD
OD 492 nm [2]: 0.051 OD
OD 492 nm [3]: 0.046 OD
OD 492 nm [4]: 0.056 OD

WNV-E protein specific murine antibody 7H2
OD 492 nm [1]: 2.09 OD
fold binding against wild-type VLP [5]: 2 fold
Kd [6]: 320 pM
OD 492 nm [3]: 2.13 OD
OD 492 nm [4]: 2.12 OD
